We go through one molecule from patent publication CN104610448A (WOMEN S HOSPITAL SCHOOL OF MEDICINE ZHEJIANG UNIVERSITY, dated 2015).

Experiment [1] deals with T1, HPV58E6 (pEGFP-C1-HPV58E6质粒转染293T细胞所提蛋白) (HPV58, UniProt P26555 1-149).
T1 construct: Expressed from pEGFP-C1 in 293T cells, so an EGFP fusion (band at 37-55 KD); assayed as denatured cell lysate in western blot; not shown: EGFP tag encoded by the pEGFP-C1 vector (N-terminal to the insert)
T1 sequence (looked up): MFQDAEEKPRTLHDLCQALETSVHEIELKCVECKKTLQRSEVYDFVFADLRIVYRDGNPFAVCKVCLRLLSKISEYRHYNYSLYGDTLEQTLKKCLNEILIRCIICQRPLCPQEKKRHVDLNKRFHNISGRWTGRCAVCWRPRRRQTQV
Put plainly: western blot, 293T lysate, recombinant antibody 1:100. In general terms: In western blotting, separated proteins are transferred to a membrane and probed.

For experiment [2], the target named is T2, HPV16E6 (pEGFP-C1-HPV16E6质粒转染293T细胞所提蛋白) (HPV16, UniProt P03126 1-158).
T2 construct: not shown: EGFP tag encoded by the pEGFP-C1 vector (N-terminal to the insert)
T2 sequence (P03126 whole entry): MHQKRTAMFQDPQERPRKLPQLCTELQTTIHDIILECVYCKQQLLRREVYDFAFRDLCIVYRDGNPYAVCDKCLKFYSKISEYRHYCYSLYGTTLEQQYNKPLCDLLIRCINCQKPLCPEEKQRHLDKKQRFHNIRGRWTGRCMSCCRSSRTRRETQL
Put plainly: western blot, 293T lysate, recombinant antibody.

B1: HPV58E6特异性兔单克隆抗体 (ZJM1b-9 H2/L1 重组抗体) (antibody, V domains shown)
VH: QSVEESGGRLVTPGTPLTLTCTVSGFSLSSKTISWVRQAPGKGLEWIGAIDSNGMKAYARWAKGRFTISKSSTTVYLKITSPTTEDTATYFCVKPNNLWGPGTLVTVSS
VL: AQVLTQTPSPVSAAVGGTVTINCQSSQSVYNNNALSWYQQKPGQPPKLLIYSASKVATGVPSRFSGSGSGAQFTLTISDLECDDAATYYCQGEFSCSSADCFAFGGGTEVVVKG
notes: Recombinant rabbit monoclonal antibody made in HEK-293-6E cells from pTT5 plasmids; also called ZJM1b-9中的H2/L1; ZJM-1-9H2/L1
As for B1, the binding result in experiment [1] was “binds”; in experiment [2] it was “no binding (tested: 1:100稀释)”.
